From publication PMC11194106

Target: Streptococcus pyogenes Cas9 (SpyCas9) (UniProt Q99ZW2)
Test: SEC co-migration followed by SDS-PAGE, band intensity quantified
Conditions: parent: est. 99; read off a plot

Row | Substance | response [%]
1 | AcrIIA28 from Streptococcus phage Javan 128 S34W | 97
2 | AcrIIA28 from Streptococcus phage Javan 128 K7D | 41
3 | AcrIIA28 from Streptococcus phage Javan 128 K48D | 93
4 | AcrIIA28 from Streptococcus phage Javan 128 W45I | 3
5 | AcrIIA28 from Streptococcus phage Javan 128 K38W | 83
6 | AcrIIA28 from Streptococcus phage Javan 128 S81W | 21
7 | AcrIIA28 from Streptococcus phage Javan 128 R41W | 96
8 | AcrIIA28 from Streptococcus phage Javan 128 H30W | 81
